For assay [1], the system named is ARPE-19 cells. Put plainly: VEGF mRNA induction test using human retinal pigment epithelial cell ARPE-19. As to conditions: H2O2 500 μM, normal human serum complement 25%, HTRA1 1 μM, peptide 1 μM, 4 hours. The format is cell-based. The method, then: ARPE-19 cells were cultured until confluent in 12 mm Transwell with 0.4 μm Pore Polyester Membrane Insert, Sterile (Corning Inc.) under conditions of 37° C. and 5% CO2 using a DMEM/F-12 medium (Wako Pure Chemical Industries, Ltd.) containing 10% fetal bovine serum (FBS) and penicillin-streptomycin (Thermo Fisher Scientific Inc.). Then, the cells were cultured in FBS-free DMEM/F-12 for 5 days. H2O2 (final concentration: 500 μM) was added to the upper and lower layers of the chamber, and normal human serum complement (Quidel Corp.) (final concentration: 25%) was added to the upper layer of the chamber. […] Four hours later, the culture supernatant was removed, and the cells were washed with PBS. Then, mRNA was extracted using SuperPrep™ Cell Lysis & RT Kit for qPCR (Toyobo Co., Ltd.) and subjected to reverse transcription reaction. The mRNA level of VEGF was quantitatively analyzed by TaqMan Gene Expression Assays (Hs000900055_m1 and Hs02786624_g1; Thermo Fisher Scientific Inc.) using 7900HT Fast Real-Time PCR System (Applied Biosystems, Inc.). GAPDH was used in the correction of the mRNA level.

Assay [2] deals with human umbilical vein endothelial cells (HUVEC). Put plainly: HUVEC migration test. The format is cell-based. As to conditions: 300 nM peptide in EGM growth medium; 2 hours. On the procedure: HUVEC (Kurabo Industries Ltd.) was cultured for 18 hours under conditions of 37° C. and 5% CO2 in a medium (0.1% BSA-containing serum-free EGM) in which EBM™-2 basal medium (Lonza Walkersville, Inc.) containing 0.1% BSA was supplemented with EGM™-2 SingleQuots™ additive factor set except for serum and VEGF. Then, the cells were adjusted to 4×10^5 cells/mL with 0.1% BSA-containing serum-free EGM. 4×10^5 cells/mL of the HUVEC suspension was added at 50 μL/well to the upper layer of a chamber of Corning FluoroBlok HTS 96 Well Multiwell Permeable Support System with 3.0 μm High Density PET Membrane (Corning Inc.) having a gelatin-coated membrane. Then, each sample described below (medium 1, 2 or 3) was added at 210 μL/well to the lower layer of the chamber (n=3). […]
FluoroBlok HTS 96 Well Multiwell Support System supplemented with the cells and the sample was incubated for 2 hours under conditions of 37° C. and 5% CO2. […] The fluorescence intensity (excitation wavelength/fluorescence wavelength: 485 nm/535 nm) of each well was measured using a plate reader (ARVO-MX, PerkinElmer, Inc.), and the migrated cells were counted for each well according to the following expression.
Migrated cells=Mean fluorescence intensity of wells containing HUVEC (n=3)−Mean fluorescence intensity of blank wells (n=3).

Assay [3] has as its system retinal damage induced by light exposure. Put plainly: Rat model of retinal damage induced by light exposure. The format is in vivo. On the procedure: Rat models of retinal damage induced by light exposure are models that induce the cell death of retinal photoreceptor cells by light exposure and are universally used as model animals of retinal degeneration (Daniel T. Organisciak et al., (1996) Invest Ophthalmol Vis Sci. Vol. 37 (No. 11): p. 2243-2257). A 0.5% (W/V) tropicamide-0.5% phenylephrine hydrochloride ophthalmic solution was ocularly instilled under adaptation to darkness to rats adapted to darkness for 72 hours. Then, the rats were exposed to white light of 5500 Lux for 3 hours. The rats thus exposed were adapted again to darkness for about 24 hours and then raised for 2 days under light-dark conditions of ordinary raising. After euthanasia, the eyeballs were excised and fixed by dipping in a 3.7% (W/V) formaldehyde-0.5 to 1% (W/V) methanol-0.2% (W/V) picric acid fixative for 24 hours or longer. After paraffin embedding, thin sliced sections were prepared. The sections were stained with hematoxylin-eosin, and a nucleus count in an outer nuclear layer at the cross-section of the retina was determined to evaluate retinal damage. […] Immediately before light exposure of rats, 5 micro L of HTRA1-inhibiting peptide […] having a concentration of 0.04 mg/mL or 0.2 mg/mL was intravitreally administered under anesthesia. n=4 for a normal saline administration group, and n=5 for the other groups. […] The retinal protective effects of three HTRA1-inhibiting peptides prepared in Example 6 were evaluated using the rat models of retinal damage induced by light exposure, constructed in Example (5-1). The operation followed Example 5. n=6 for all groups.

In assay [4] the test system is RPE cells. Put plainly: Rabbit retinal damage model by loading with high-fat diet containing hydroquinone (HFD-HQ). The format is in vivo. To be noted: HFD-HQ-loaded 3-year-old rabbits; 50 μL of 40 mg/mL intravitreally after 2 months of feeding; evaluated after 4 months. An excerpt:
Retinal damage models prepared using high-fat diet (HFD) and hydroquinone (HQ) are models in which oxidative stress is induced by a pro-oxidant to cause retinal damage. These models have been reported only for mice (Diego G. Espinosa-Heidmann et al., (2006) Invest Ophthalmol Vis Sci., Vol. 47 (No. 2): p. 729-737). Accordingly, 3-year-old JW rabbits were fed for 4 months with RC4 (Oriental Yeast Co., Ltd.) diet containing 1.5% (W/V) coconut oil-0.25% (W/V) cholesterol-1.5% (W/V) peanut oil-2.4% (W/V) hydroquinone (HFD-HQ) to construct rabbit retinal damage models. After euthanasia, the eyeballs were excised, and the anterior segment of the eye was removed by an external incision of about 5 mm from the corneal limbus. The vitreous body was further separated. Then, retina-choroid-sclera was fixed by dipping in 4% (W/V) paraformaldehyde fixative for 24 hours or longer. […] The stained choroid was observed under a fluorescence microscope (BZ-9000; Keyence Corp.). The area of stained retinal pigment epithelial (RPE) cells was determined to evaluate RPE cell damage.
The retinal protective effect of the HTRA1-inhibiting peptide H308 prepared in Example 1 was evaluated using the rabbit models. […]
After 4 months from the start of feeding, RPE cell hypertrophy in the model animals was evaluated. […]

Assay [5] deals with T1, HTRA1 (cat) (Homo sapiens, UniProt Q92743).
T1 construct: The protease domain (158Gly to 373Lys), except for the N-terminal domain and the PDZ domain, of human HTRA1 (Q92743); made in house; host or cells: E. coli BL21 (DE3)
T1 sequence (Q92743 158-373): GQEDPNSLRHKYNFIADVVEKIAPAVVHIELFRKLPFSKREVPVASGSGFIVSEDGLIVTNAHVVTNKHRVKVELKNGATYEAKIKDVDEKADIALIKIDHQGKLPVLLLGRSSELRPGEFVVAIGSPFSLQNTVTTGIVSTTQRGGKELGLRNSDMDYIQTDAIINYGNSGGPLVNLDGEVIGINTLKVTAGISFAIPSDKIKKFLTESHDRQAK
Briefly: HTRA1 (cat) inhibitory activity using peptide substrate H2-Opt (Example 3-1). The format is biochemical. As to conditions: method of (3-1); peptide 1.875 to 1,000 nM. The method, then:
The protease domain (158Gly to 373Lys), except for the N-terminal domain and the PDZ domain, of human HTRA1 (Q92743) was used as HTRA1 (cat) to construct a HTRA1 (cat) expression vector. The desired DNA fragment was amplified by PCR ((94° C. for 15 sec, 60° C. for 30 sec, and 68° C. for 45 sec)×30 cycles) with a human HTRA1-inserted plasmid (GeneCopoeia, Inc.; GC-M0558) as a template using the following primers and KOD-plus-(Toyobo Co., Ltd.).
A substrate peptide H2-Opt (Mca-IRRVSYSFK(Dnp)K) (Peptide Institute, Inc.: SEQ ID NO: 54, FIG. 8) was dissolved at 10 mM in DMSO, diluted with an assay buffer (50 mM borate and 150 mM NaCl, pH 8.5), and used at a final concentration of 10 μM. HTRA1 (HTRA1 (cat) or HTRA1 (full)) and each HTRA1-inhibiting peptide diluted with an assay buffer were mixed at 25 μL each and reacted at 37° C. for 20 minutes. Then, 50 μL of the substrate diluted with an assay buffer was added thereto. A fluorescent signal (excitation at 328 nm/emission at 393 nm) was measured using Enspire (PerkinElmer, Inc.). […]
The substrate peptide decomposition rate of the HTRA1-inhibiting peptide at each concentration was calculated. When the decomposition rate at an inhibitor concentration of 0 nM was defined as 100%, the HTRA1 (cat) and HTRA1 (full) inhibitory activity of each HTRA1-inhibiting peptide was evaluated (FIGS. 2 and 3).

B1: H308_D1G_S16A: H308 derivative, 1Asp substituted by Gly and 16Ser by Ala, SEQ ID NO: 24 (FIG. 36) (protein)
chain: GPQFGLFSKYRTPNCADHAGMACVALYEPVCGSDMSTYENECVLCMKIREGGHNIKIIRNGPCGG
modifications: peptide H308_D1G_S16A
As for B1, the “expression of VEGF mRNA” value in assay [1] was “confirmed to suppress the expression of VEGF”. Also, the “migration of HUVEC induced in the serum-containing medium” value in assay [2] is given as “suppressive effect on the migration of HUVEC”. The “nucleus count in an outer nuclear layer at the cross-section of the retina” value (“nucleus count in an outer nuclear layer” for short) in assay [3] (0.2 and 1 μg/eye, n=6) is reported as “suppressed decrease in nucleus count in an outer nuclear layer”.

B2: H308: SPINK2 mutant HTRA1-inhibiting peptide, amino acid sequence SEQ ID NO: 9 (FIG. 21) (protein)
chain: DPQFGLFSKYRTPNCSDHAGMACVALYEPVCGSDMSTYENECVLCMKIREGGHNIKIIRNGPCGG
modifications: peptide H308
As for B2, in assay [4], the “hypertrophy of RPE cells, average area” value is recorded as “exhibited a suppressive effect on the hypertrophy of RPE cells” and the “hypertrophy of RPE cells, number of RPE cells having a cell area of 1500 μm^2 or larger” value is “exhibited a suppressive effect on the hypertrophy of RPE cells”. In addition, the “nucleus count in an outer nuclear layer” value in assay [3] (5 micro L of 0.04 mg/mL or 0.2 mg/mL intravitreally immediately before light exposure) is reported as “effect of suppressing decrease in nucleus count in an outer nuclear layer was confirmed”.

B3: H322AT_D1G_S16A: peptide derivative, amino acid sequence SEQ ID NO: 29 (FIG. 41) (protein)
chain: GPQFGLFSKYRTPNCAQHEGMACYALYEPVCGSDMSTYANECTLCMKIREGGHNIKIIRNGPCGG
modifications: peptide H322AT_D1G_S16A
As for B3, the “nucleus count in an outer nuclear layer” value in assay [3] (0.2 and 1 μg/eye, n=6) is “suppressed decrease in nucleus count in an outer nuclear layer”.

B4: H321AT_D1G_S16A: peptide derivative, amino acid sequence SEQ ID NO: 28 (FIG. 40) (protein)
chain: GPQFGLFSKYRTPNCADFDGMACYAFYEPVCGSDMSTYANECTLCMKIREGGHNIKIIRNGPCGG
modifications: peptide H321AT_D1G_S16A
Turning to B4, in assay [3] (0.2 and 1 μg/eye, n=6), the “nucleus count in an outer nuclear layer” value was “suppressed decrease in nucleus count in an outer nuclear layer”.

B5: wild-type SPINK2: human serine protease inhibitor Kazal-type 2, control, amino acid sequence SEQ ID NO: 1 (FIG. 13) (protein, listed as Homo sapiens)
chain: DPQFGLFSKYRTPNCSQYRLPGCPRHFNPVCGSDMSTYANECTLCMKIREGGHNIKIIRNGPC
For B5, in assay [5], the “HTRA1 (cat) inhibitory activity (decomposition rate of peptide substrate)” value is “no HTRA1 inhibitory activity”.

(Values after patent US20240294610A1, “PEPTIDE FOR TREATING AGE-RELATED MACULAR DEGENERATION” (DAIICHI SANKYO COMPANY, LIMITED, priority 2016, published 2024).)
